B1: SEQ ID NO: 9: synthetic plant promoter for maize, subelements eFMV, e35S, eNOS, prCMP, xZmH3Cis, eTMV; 1294 bp (nucleic acid)
DNA: AGCTGCTTGTGGGGACCAGACAAAAAAGGAATGGTGCAGAATTGTTAGGCGCACCTACCAAAAGCATCTTTGCCTTTATTGCAAAGATAAAGCAGATTCCTCTAGTACAAGTGGGGAACAAAATAACGTGGAAAAGAGCTGTCCTGACAGCCCACTCACTAATGCGTATGACGAACGCAGTGACGACCACAAAACTCGAGACTTTTCAACAAAGGGTAATATCCGGAAACCTCCTCGGATTCCATTGCCCAGCTATCTGTCACTTTATTGTGAAGATAGTGGAAAAGGAAGGTGGCTCCTACAAATGCCATCATTGCGATAAAGGAAAGGCTATCGTTGAAGATGCCTCTGCCGACAGTGGTCCCAAAGATGGACCCCCACCCACGAGGAGCATCGTGGAAAAAGAAGACGTTCCAACCACGTCTTCAAAGCAAGTGGATTGATGTGATATCTCCACTGACGTAAGGGATGACGAACAATCCCACTATCCTTCTGCCGGACCCTCATGAGCGGAGAATTAAGGGAGTCACGTTATGACCCCCGCCGATGACGCGGGACAAGCCGTTTTACGTTTGGAACTGACAGAACCGCAACGAAGCTTTGGCAGACAAAGTGGCAGACATACTGTCCCACAAATGAAGATGGAATCTGTAAAAGAAAACGCGTGAAATAATGCGTCTGACAAAGGTTAGGTCGGCTGCCTTTAATCAATACCAAAGTGGTCCCTACCACGATGGAAAAACTGTGCAGTCGGTTTGGCTTTTTCTGACGAACAAATAAGATTCGTGGCCGACAGGTGGGGGTCCACCATGTGAAGGCATCTTCAGACTCCAATAATGGAGCAATGACGTAAGGGCTTACGAAATAAGTAAGGGTAGTTTGGCATATGCTGGTGGCAGAGGGTGTGCTTCCCTGCTTGGGCGGGCACGCTGGGATGGCGAAAATTTTCGGAAGCGCTGGGATGGCGAAAATTTTCGGAAGCGCTGGGCGCTGGCGCGGGCGGCGGACAACTATGGGTCGTTGGATTGGGAATTGGGATGGAGGGCGAGGGTGTCGCTGCTGGCGGGGGTCGATCCGCGTGTTGAGCGATCTGCGAGGATTATGTCCACTCACCCGTCAGTCTATAAATACTTAGCCCCTCCCTCATTGTTAAGGGAGCAAAATCTCAGAGAGATAGTCCTAGAGAGAGAAAGAGAGCAAGTAGCCTAGAAGTGGATCCACCTCGAGTATTTTTACAACAATTACCAACAACAACAAACAACAAACAACATTACAATTACTATTTACAATTACACATGTAAACC
modifications: synthetic plant promoter
notes: synthetic plant promoter for maize, subelements eFMV, e35S, eNOS, prCMP, xZmH3Cis, eTMV; 1294 bp
B2: SEQ ID NO: 4: synthetic plant promoter, subelements eFMV, eTMV; 267 bp (nucleic acid)
DNA: AGCTGCTTGTGGGGACCAGACAAAAAAGGAATGGTGCAGAATTGTTAGGCGCACCTACCAAAAGCATCTTTGCCTTTATTGCAAAGATAAAGCAGATTCCTCTAGTACAAGTGGGGAACAAAATAACGTGGAAAAGAGCTGTCCTGACAGCCCACTCACTAATGCGTATGACGAACGCAGTGACGACCACAAAACTCGAGTATTTTTACAACAATTACCAACAACAACAAACAACAAACAACATTACAATTACTATTTACAATTACA
modifications: synthetic plant promoter
notes: synthetic plant promoter, subelements eFMV, eTMV; 267 bp
B3: SEQ ID NO: 8: synthetic plant promoter for maize, subelements eFMV, e35S, prTaHisH3, eTMV; 834 bp (nucleic acid)
DNA: AGCTGCTTGTGGGGACCAGACAAAAAAGGAATGGTGCAGAATTGTTAGGCGCACCTACCAAAAGCATCTTTGCCTTTATTGCAAAGATAAAGCAGATTCCTCTAGTACAAGTGGGGAACAAAATAACGTGGAAAAGAGCTGTCCTGACAGCCCACTCACTAATGCGTATGACGAACGCAGTGACGACCACAAAACTCGAGACTTTTCAACAAAGGGTAATATCCGGAAACCTCCTCGGATTCCATTGCCCAGCTATCTGTCACTTTATTGTGAAGATAGTGGAAAAGGAAGGTGGCTCCTACAAATGCCATCATTGCGATAAAGGAAAGGCTATCGTTGAAGATGCCTCTGCCGACAGTGGTCCCAAAGATGGACCCCCACCCACGAGGAGCATCGTGGAAAAAGAAGACGTTCCAACCACGTCTTCAAAGCAAGTGGATTGATGTGATATCTCCACTGACGTAAGGGATGACGAACAATCCCACTATCCTTCTGCCGGACCCAAGCTTTCGGCCACGTCACCAATCCGCGGCATTCCTACCCGGATCGCCATCTCGACCGTCCACTCCATCCGCATCCAACGGCAAGTACATGCCTCTCGTCCCCTCCCGAAAAACCAAAACCCAAACCCGCCCGCTCTCTCGGTGCTCCTCCTATTTAACTCCGCCCCGTCCCCTTCTTCCTCCTCACCCCAATCTCCCCAGCCCCCAACCACCAGAGCCTCCTCCTCCCCTCCGGCGCATCGACGACAAGGGATCCACCTCGAGTATTTTTACAACAATTACCAACAACAACAAACAACAAACAACATTACAATTACTATTTACAATTACACATGTAAACC
modifications: synthetic plant promoter
notes: synthetic plant promoter for maize, subelements eFMV, e35S, prTaHisH3, eTMV; 834 bp

Columns and labels:
Assay type in all cases: in vivo
transgenic corn events = test: Glyphosate phytotoxicity (percent injury) of transgenic corn events carrying promoter-EPSPS cassettes; settings: maize; for efficiency in promoting expression of an operably linked heterologous sequence compared with unmodified cestrum virus promoter: EPSPS gene, glyphosate tolerance
Source text: SEQ ID NO: 8 was synthesized by Gene Art as a SanDI/BamHI fragment then ligated directly into a cloning vector harboring the EPSPS gene (cZmEPSPSct-01) to confer glyphosate tolerance (Terada, et al., (1995) A type I element composed of the hexamer (ACGTCA) and octamer (CGCGGATC) motifs plays a role(s) in meristematic expression of a wheat histone H3 gene in transgenic rice plants. Plant Molecular Biology 27: 17-26). SEQ ID NO: 9 was created by ligation of the xZmH3Cis DNA elements to the prCMP promoter as an NheI fragment such that these elements are 5′ to the TATA-BOX (Brignon, et al., (1993) Nuclease sensitivity and functional analysis of a maize histone H3 gene promoter. Plant Molecular Biology 22: 1007-1015).
See Table 9 for glyphosate phytotoxicity, in terms of percent injury. Plants were sprayed with an appropriate amount of glyphosate (i.e. 4× Touchdown®) at the V4 stage and the V8 stage. Percent injury was measured at 7 and 14 days after the V4 stage glyphosate spray, as well as 7 and 14 days after V8 stage glyphosate spray.

[1] = tested on: oat HPPD protein expression; test: oat HPPD protein expression by ELISA in T1 transgenic soybean events; settings: inferred from ELISA and mesotrione tolerance of HOM vs HET siblings
Source text: To express a synthetic oat (Avena sativa) 4-hydroxyphenylpyruvate dioxygenase (cAvHPPD) in stably transformed soybean, viral transcriptional and translational enhancers, and a minimal promoter were created by PCR or direct DNA synthesis and combined by standard DNA restriction digestion and ligation reactions. A synthetic plant promoter comprising defined components eFMV (SEQ ID NO: 1), eTMV (SEQ ID NO: 2), the Cauliflower Mosaic Virus 35S enhancer region (e35S) and a minimal promoter (pr35SCMP: Cestrum Yellow Leaf Curl virus TATA-box motif; no CAAT 35S-proximal promoter sequence) were combined to create SEQ ID NO: 3. Subsequently, SEQ ID NO: 3 was modified by digestion with a DNA restriction enzyme XhoI to remove defined components e35S, pr35SCMP (including the TATA-box motif) followed by a standard ligation reaction to create SEQ ID NO: 4. […] One skilled in the art would readily recognize other subelements which would be suitable to use.
The plasmids containing the synthetic plant promoter expression cassettes were transformed into soybean using Agrobacterium tumefaciens. […] Expression of cAvHPPD of surviving T0 plants was quantified by ELISA (Engvall E, Perlman P (1971). “Enzyme-linked immunosorbent assay (ELISA). Quantitative assay of immunoglobulin G”. Immunochemistry 8(9):871-874).
(§1) The first generation transgenic soybean events (T1) harboring SEQ ID NO: 3, SEQ ID NO: 4, SEQ ID NO: 5, SEQ ID NO: 6, or SEQ ID NO: 7 were characterized for segregation analysis, oat HPPD protein expression and tolerance to mesotrione herbicide spray. The green leaf tissues from the first trifoliate of five independent events were sampled to determine the segregation ratios (homozygous, heterozygous or null) of the individual seedlings as determined by zygosity Taqman® assays and oat HPPD protein expression by ELISA. At the V2 stage, the seedlings were sprayed with the HPPD inhibiting herbicide mesotrione and tolerance rating determined approximately 10 days post-application.

[2] = tested on: transgenic soybean events; test: tolerance to mesotrione herbicide spray of T1 transgenic soybean seedlings; settings: sprayed at V2 stage, rated approximately 10 days post-application
Source text: as §1

| Molecule | evidence of HDGS and HDMS (transgenic corn events) | efficiency in promoting expression of an operably linked heterologous sequence compared with unmodified cestrum virus promoter (transgenic corn events) | efficiency in promoting expression of an operably linked heterologous sequence compared with unmodified cestrum virus promoter (transgenic corn events; listed as 9) | transgene silencing in HOM plants [1] | tolerance to mesotrione herbicide spray [2] | efficiency in promoting expression of an operably linked heterologous sequence compared with unmodified cestrum virus promoter (transgenic corn events; listed as 8) |
| --- | --- | --- | --- | --- | --- | --- |
| B1 | no evidence of HDGS and HDMS | function at least as well on average as the unmodified cestrum virus promoter | as efficient in promoting the expression of an operably linked heterologous sequence as an unmodified cestrum virus promoter | – | – | – |
| B2 | – | – | – | relieve transgene silencing | improved tolerance to the HPPD inhibitor herbicide mesotrione | – |
| B3 | no evidence of HDGS and HDMS | function at least as well on average as the unmodified cestrum virus promoter | – | – | – | as efficient in promoting the expression of an operably linked heterologous sequence as an unmodified cestrum virus promoter |
